Data on three molecules can be found in PMC3353549 (Developmental Cell, 2012).

Holding throughout (assay): SEC
Background: In gel filtration, larger molecules generally elute earlier.

In experiment [1] the target is (CENP-A/H4)2 heterotetramer (human, UniProt P49450 1-140; P62805 1-103).
The next experiment concerns the target (CENP-A^S68Q/H4)2 (human, UniProt P49450 1-140; P62805 1-103, S68Q).
Experiment [2] addresses CENP-A^H115A/L128A/H4 heterodimer (human, UniProt P49450 1-140; P62805 1-103, H115A | L128A).

Numbering of substitutions follows the chain as printed. In names and notes the source's numbering stands.

(CENP-A/H4)2 heterotetramer, sequence (P49450 whole entry, one chain of several): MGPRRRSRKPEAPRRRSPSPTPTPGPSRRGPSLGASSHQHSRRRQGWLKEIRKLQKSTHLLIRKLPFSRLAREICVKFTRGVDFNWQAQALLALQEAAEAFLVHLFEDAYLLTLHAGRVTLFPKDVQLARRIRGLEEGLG
CENP-A^H115A/L128A/H4 heterodimer, sequence (P49450 whole entry H115A/L128A, one chain of several): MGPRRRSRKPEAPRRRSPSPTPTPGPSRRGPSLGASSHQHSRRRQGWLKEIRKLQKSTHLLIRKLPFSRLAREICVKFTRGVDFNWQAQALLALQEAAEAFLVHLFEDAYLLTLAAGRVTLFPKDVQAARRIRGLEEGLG
(CENP-A^S68Q/H4)2, sequence (P49450 whole entry S68Q, one chain of several): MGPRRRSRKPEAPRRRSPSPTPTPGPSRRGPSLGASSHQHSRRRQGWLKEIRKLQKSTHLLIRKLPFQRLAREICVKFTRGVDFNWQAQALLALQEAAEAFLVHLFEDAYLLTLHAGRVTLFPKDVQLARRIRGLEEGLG

B1: MBP-HJURP^1–62 (domain or fragment)
chain: MLGTLRAMEGEDVEDDQLLQKLRASRRRFQRRMQRLIEKYNQPFEDTPVVQMATLTYETPQG
For the molecule B1, the binding result in experiment [1] is “binds”.

B2: MBP-HJURP^1–80 (domain or fragment)
chain: MLGTLRAMEGEDVEDDQLLQKLRASRRRFQRRMQRLIEKYNQPFEDTPVVQMATLTYETPQGLRIWGGRLIKERNEGEIQ
Consider B2, for which the binding result (with (CENP-A^S68Q/H4)2; in experiment [1]; in experiment [2]) was “binds” in each case.

B3: MBP-HJURP^1–80/W66A (domain or fragment)
chain: B2 chain with W66A
On to B3, for which the binding result in experiment [1] is listed as “binds”.
